From patent publication US20150087584A1 (COUNCIL OF SCIENTIFIC AND INDUSTRIAL RESEARCH, published 2015) come the findings set out here.

The test addresses bovine trypsin (bovine, UniProt P00760 24-246). Kind of test: cell-based or functional assay.

bovine trypsin, sequence (P00760 24-246): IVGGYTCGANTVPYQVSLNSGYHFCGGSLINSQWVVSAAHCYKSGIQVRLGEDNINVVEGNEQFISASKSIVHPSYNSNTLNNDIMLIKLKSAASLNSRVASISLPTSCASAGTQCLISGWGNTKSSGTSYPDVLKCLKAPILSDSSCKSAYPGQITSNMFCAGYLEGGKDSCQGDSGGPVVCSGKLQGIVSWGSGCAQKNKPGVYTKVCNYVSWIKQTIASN

Take QPICTNSSAGLKGCNYYNADGTFICEGESDPNHPKACPKNCDPNIAYSLC (other) [inhibitory repeat domain IRD-9 of Capsicum annuum Pin-II proteinase inhibitors (CanPIs)]: the “IC50 of inhibition of bovine trypsin activity (BApNA substrate)” value is about 2.2 µM.
The result for NRLCTNCCAGRKGCNYYSADGTFICEGESDPNNPKACPRNCDPNIAYSLC (other) [inhibitory repeat domain IRD-12 of Capsicum annuum Pin-II proteinase inhibitors (CanPIs)] reads about 65 µM.
